In data set [1] the target is FapC from P. fluorescens Pf5, wild type (P. fluorescens Pf5) (UniProt P0DXF5). Description: formic acid dissolution of fibrils with SDS-PAGE; mature fibrils in 0-100% formic acid, 30 min, room temperature; centrifuged; released monomer in the supernatant on SDS-PAGE, normalised to 100% FA.
Data set [2] has as its target FapC from Pseudomonas fluorescens Pf5, wild type (P. fluorescens Pf5). Description: seeded ThT fibrillation kinetics, global fit with AmyloFit; 5 µM FapC UK4 monomer with 0-10% v/v sonicated fibril seeds of UK4, PAO1, Pf5 or F1 FapC; 40 µM ThT, 50 mM Tris/HCl pH 7.4, 37 °C, no shaking; constants of monomer addition to (k+) and release from (Koff) fibrils; time in hours.

Data set [3] addresses FapC from Pseudomonas putida F1, wild type (Pseudomonas putida F1). The description is as above.
The target of data set [4] is FapC from Pseudomonas aeruginosa PAO1, wild type (Pseudomonas aeruginosa PAO1). Described as above.
Data set [5] concerns the target FapC from Pseudomonas putida F1, wild type (Pseudomonas putida F1). Description: formic acid dissolution of fibrils with SDS-PAGE; mature fibrils in 0-100% formic acid, 30 min, room temperature; centrifuged; released monomer in the supernatant on SDS-PAGE, normalised to 100% FA.
Data set [6] concerns the molecule itself. Description: ThT fluorescence fibrillation kinetics; self-assembly into amyloid without seeds; 15 µM FapC (wt or mutant; wt also 1-15 µM), 50 mM Tris/HCl pH 7.4, 40 µM ThT, 37 °C, no shaking, followed for 120 h.

With “FapC from P. fluorescens Pf5, wild type (from UniProt P0DXF5 25-250) (natural protein)”, the formic acid needed to dissolve half of the fibrils in data set [1] was 70 % FA.
As to “FapC from Pseudomonas sp. UK4, wild type (from UniProt P0DXF5 25-250) (natural protein)”, the results for the koff in data set [2], in data set [3] and in data set [4] were 9.11e-13 s⁻¹, 1.96e-15 s⁻¹ and 3.94e-14 s⁻¹, respectively.
Regarding “FapC from Pseudomonas putida F1, wild type (natural protein)”, the formic acid needed to dissolve half of the fibrils in data set [5] came to 70 % FA.

B1: FapC UK4 Asn200Ala (natural protein, Pseudomonas sp. UK4)
chain: GPAEKWKPTPAPTGTVAAAVTDTQVSKDNKFDDTKTLNNAGANGSLSNSKGNLGANIAAGSGNQQDNAAAITSSAGDAATVFAVADIYQESKDNKFTNKGTQNNALLNNSANNSSGNVGVNVAAGQGNQQKNNLAIVTADGKNVAAASNTEQVSLDNHFLNEASSKHSYKPQYVVANAGLLNSANNASGNIGVNVAAGAGNQQSNTLTLGSGCTVCAAGTGSKLAF
notes: FapC, Pseudomonas sp; UK4, point mutant made on the FapC UK4 plasmid; Same construct as m1 but for the mutation; source: E. coli BL21 (DE3), purified (Ni-NTA in 7.5 M guanidine hydrochloride), desalted
As for B1, in data set [6], the binding result is listed as “binds”.

B2: FapC UK4 Lys155Asp and Ser228Asp (natural protein, Pseudomonas sp. UK4)
chain: GPAEKWKPTPAPTGTVAAAVTDTQVSKDNKFDDTKTLNNAGANGSLSNSKGNLGANIAAGSGNQQDNAAAITSSAGDAATVFAVADIYQESKDNKFTNKGTQNNALLNNSANNSSGNVGVNVAAGQGNQQDNNLAIVTADGKNVAAASNTEQVSLDNHFLNEASSKHSYKPQYVVNNAGLLNSANNASGNIGVNVAAGAGNQQDNTLTLGSGCTVCAAGTGSKLAF
notes: FapC, Pseudomonas sp; UK4, double charge mutant made on the FapC UK4 plasmid; Same construct as m1 but for the mutations; also called cluster of four negative charges (Asp46, Asp90, Asp155, and Asp228); source: E. coli BL21 (DE3), purified (Ni-NTA in 7.5 M guanidine hydrochloride), desalted
With B2, the binding result in data set [6] is “binds”.

B3: FapC UK4 Asn229Ala (natural protein, Pseudomonas sp. UK4)
chain: GPAEKWKPTPAPTGTVAAAVTDTQVSKDNKFDDTKTLNNAGANGSLSNSKGNLGANIAAGSGNQQDNAAAITSSAGDAATVFAVADIYQESKDNKFTNKGTQNNALLNNSANNSSGNVGVNVAAGQGNQQKNNLAIVTADGKNVAAASNTEQVSLDNHFLNEASSKHSYKPQYVVNNAGLLNSANNASGNIGVNVAAGAGNQQSATLTLGSGCTVCAAGTGSKLAF
notes: as for B1
As to B3, in data set [6], the binding result is recorded as “binds”.

B4: FapC UK4 Q89A (natural protein, Pseudomonas sp. UK4)
chain: GPAEKWKPTPAPTGTVAAAVTDTQVSKDNKFDDTKTLNNAGANGSLSNSKGNLGANIAAGSGNQADNAAAITSSAGDAATVFAVADIYQESKDNKFTNKGTQNNALLNNSANNSSGNVGVNVAAGQGNQQKNNLAIVTADGKNVAAASNTEQVSLDNHFLNEASSKHSYKPQYVVNNAGLLNSANNASGNIGVNVAAGAGNQQSNTLTLGSGCTVCAAGTGSKLAF
notes: FapC, Pseudomonas sp; UK4, point mutant made on the FapC UK4 plasmid; Same construct as m1 but for the mutation; also called Gln89 mutant; source: E. coli BL21 (DE3), purified (Ni-NTA in 7.5 M guanidine hydrochloride), desalted
On to B4, for which, in data set [6], the binding result is “binds”.

B5: FapC UK4 Gly75Pro (natural protein, Pseudomonas sp. UK4)
chain: GPAEKWKPTPAPTGTVAAAVTDTQVSKDNKFDDTKTLNNAGANGSLSNSKPNLGANIAAGSGNQQDNAAAITSSAGDAATVFAVADIYQESKDNKFTNKGTQNNALLNNSANNSSGNVGVNVAAGQGNQQKNNLAIVTADGKNVAAASNTEQVSLDNHFLNEASSKHSYKPQYVVNNAGLLNSANNASGNIGVNVAAGAGNQQSNTLTLGSGCTVCAAGTGSKLAF
notes: as for B1
Take B5: in data set [6], the binding result was “binds”.

B6: FapC UK4 N145A (natural protein, Pseudomonas sp. UK4)
chain: GPAEKWKPTPAPTGTVAAAVTDTQVSKDNKFDDTKTLNNAGANGSLSNSKGNLGANIAAGSGNQQDNAAAITSSAGDAATVFAVADIYQESKDNKFTNKGTQNNALLNNSANNSSGNVGVAVAAGQGNQQKNNLAIVTADGKNVAAASNTEQVSLDNHFLNEASSKHSYKPQYVVNNAGLLNSANNASGNIGVNVAAGAGNQQSNTLTLGSGCTVCAAGTGSKLAF
notes: as for B1
In the case of B6, the binding result in data set [6] is “binds”.

B7: FapC UK4 Asn87Ala (natural protein, Pseudomonas sp. UK4)
chain: GPAEKWKPTPAPTGTVAAAVTDTQVSKDNKFDDTKTLNNAGANGSLSNSKGNLGANIAAGSGAQQDNAAAITSSAGDAATVFAVADIYQESKDNKFTNKGTQNNALLNNSANNSSGNVGVNVAAGQGNQQKNNLAIVTADGKNVAAASNTEQVSLDNHFLNEASSKHSYKPQYVVNNAGLLNSANNASGNIGVNVAAGAGNQQSNTLTLGSGCTVCAAGTGSKLAF
notes: FapC, Pseudomonas sp; UK4, point mutant made on the FapC UK4 plasmid; Same construct as m1 but for the mutation; also called Asn87 mutant; source: E. coli BL21 (DE3), purified (Ni-NTA in 7.5 M guanidine hydrochloride), desalted
Turning to B7, in data set [6], the binding result was “binds”.

B8: FapC UK4 Gly75Ala (natural protein, Pseudomonas sp. UK4)
chain: GPAEKWKPTPAPTGTVAAAVTDTQVSKDNKFDDTKTLNNAGANGSLSNSKANLGANIAAGSGNQQDNAAAITSSAGDAATVFAVADIYQESKDNKFTNKGTQNNALLNNSANNSSGNVGVNVAAGQGNQQKNNLAIVTADGKNVAAASNTEQVSLDNHFLNEASSKHSYKPQYVVNNAGLLNSANNASGNIGVNVAAGAGNQQSNTLTLGSGCTVCAAGTGSKLAF
notes: as for B1
Take B8: in data set [6], the binding result is “binds”.

B9: FapC UK4 Gly84Ala (natural protein, Pseudomonas sp. UK4)
chain: GPAEKWKPTPAPTGTVAAAVTDTQVSKDNKFDDTKTLNNAGANGSLSNSKGNLGANIAAASGNQQDNAAAITSSAGDAATVFAVADIYQESKDNKFTNKGTQNNALLNNSANNSSGNVGVNVAAGQGNQQKNNLAIVTADGKNVAAASNTEQVSLDNHFLNEASSKHSYKPQYVVNNAGLLNSANNASGNIGVNVAAGAGNQQSNTLTLGSGCTVCAAGTGSKLAF
notes: FapC, Pseudomonas sp; UK4, point mutant made on the FapC UK4 plasmid; Same construct as m1 but for the mutation; also called G84A; source: E. coli BL21 (DE3), purified (Ni-NTA in 7.5 M guanidine hydrochloride), desalted
In the case of B9, the binding result in data set [6] is given as “binds”.

B10: FapC UK4 Asp90Lys and Ser228Lys (natural protein, Pseudomonas sp. UK4)
chain: GPAEKWKPTPAPTGTVAAAVTDTQVSKDNKFDDTKTLNNAGANGSLSNSKGNLGANIAAGSGNQQKNAAAITSSAGDAATVFAVADIYQESKDNKFTNKGTQNNALLNNSANNSSGNVGVNVAAGQGNQQKNNLAIVTADGKNVAAASNTEQVSLDNHFLNEASSKHSYKPQYVVNNAGLLNSANNASGNIGVNVAAGAGNQQKNTLTLGSGCTVCAAGTGSKLAF
notes: FapC, Pseudomonas sp; UK4, double charge mutant made on the FapC UK4 plasmid; Same construct as m1 but for the mutations; also called cluster of three positive charges (Lys90, Lys155, and Lys228); source: E. coli BL21 (DE3), purified (Ni-NTA in 7.5 M guanidine hydrochloride), desalted
As to B10, the binding result in data set [6] is “binds”.

B11: FapC UK4 Gln227Ala (natural protein, Pseudomonas sp. UK4)
chain: GPAEKWKPTPAPTGTVAAAVTDTQVSKDNKFDDTKTLNNAGANGSLSNSKGNLGANIAAGSGNQQDNAAAITSSAGDAATVFAVADIYQESKDNKFTNKGTQNNALLNNSANNSSGNVGVNVAAGQGNQQKNNLAIVTADGKNVAAASNTEQVSLDNHFLNEASSKHSYKPQYVVNNAGLLNSANNASGNIGVNVAAGAGNQASNTLTLGSGCTVCAAGTGSKLAF
notes: as for B1
Take B11: the binding result in data set [6] was “binds”.

The values above are taken from article PMC12392863, “Natural Design of a Stabilized Cross‐β Fold: Structure of the FuA FapC from Pseudomonas Sp. UK4 Reveals a Critical Role for Stacking of Imperfect Repeats” (Advanced Materials (Deerfield Beach, Fla.), 2025).
